In article PMC8440579:

Target: YukE with nsAA 2 (p-azidophenylalanine) incorporated at position 44, YukE(W44TAG) (B. subtilis) (UniProt C0SP85)
Assay: cross-linking; in vivo photo-crosslinking through p-azidophenylalanine (nsAA 2) in B. subtilis cells resuspended in 1x PBS, UV 365 nm for 15 min or 60 min on ice; lysates on 17% SDS-PAGE without reductant, anti-YukE immunoblot

“YukE with nsAA 2 (p-azidophenylalanine) incorporated at position 44, YukE(W44TAG) (from UniProt C0SP85 1-97) (natural protein)” was tested, and the crosslinking efficiency was 100% and the stoichiometry N was 2.
